Kd data for six sequences are collected here from paper PMC13276077.

Experiment in all cases: EMSA
For one data set, the target named is MeCP2 MBD (Homo sapiens) (UniProt P51608). As to conditions: EMSA: 20 mM HEPES pH 7.5, 75 mM NaCl, 125 mM KCl, 50 uM EDTA, 2.5 mM beta-mercaptoethanol, 5% glycerol, BSA, 1.58 uM 47 bp competitor DNA (absent in free DNA …). A general note: Mobility shift assays separate free from complexed probe on a gel.
The target of data set [1] is MeCP2 AT-DIRmut;histone octamer R188G;R190G;K254N;K256N;R268Q|H2B T115C;H3.1 C96S;C110A (Homo sapiens;) (UniProt P51608+P0C0S8+P62807+P68431+P62805). As to conditions: 20 mM HEPES pH 7.5, 75 mM NaCl, 125 mM KCl, 50 uM EDTA, 2.5 mM beta-mercaptoethanol, 5% glycerol, BSA, 1.58 uM 47 bp competitor DNA (nucleosome assays), absent …, low values mean tight binding.
Data set [2] has as its target MeCP2 full-length, e2 isoform;histone octamer H2B T115C;H3.1 C96S;C110A (Homo sapiens;) (UniProt P51608+P0C0S8+P62807+P68431+P62805). The following applies: 20 mM HEPES pH 7.5, 75 mM NaCl, 125 mM KCl, 50 uM EDTA, 2.5 mM beta-mercaptoethanol, 5% glycerol, BSA, 1.58 uM 47 bp competitor DNA (nucleosome assays), absent …, low values mean tight binding.
The target of data set [3] is MeCP2 full-length, e2 isoform;histone H1.0;histone octamer H2B T115C;H3.1 C96S;C110A (Homo sapiens;Homo sapiens;) (UniProt P51608+P07305+P0C0S8+P62807+P68431+P62805). As to conditions: 20 mM HEPES pH 7.5, 75 mM NaCl, 125 mM KCl, 50 uM EDTA, 2.5 mM beta-mercaptoethanol, 5% glycerol, BSA, 1.58 uM 47 bp competitor DNA (nucleosome assays), absent …, low values mean tight binding.

For data set [4], the target named is MeCP2 full-length, e2 isoform (Homo sapiens) (UniProt P51608). As to conditions: EMSA: 20 mM HEPES pH 7.5, 75 mM NaCl, 125 mM KCl, 50 uM EDTA, 2.5 mM beta-mercaptoethanol, 5% glycerol, BSA, 1.58 uM 47 bp competitor DNA (absent in free DNA …).
Data set [5] addresses MeCP2 MBD;histone octamer H2B T115C;H3.1 C96S;C110A (Homo sapiens;) (UniProt P51608+P0C0S8+P62807+P68431+P62805). The following applies: 20 mM HEPES pH 7.5, 75 mM NaCl, 125 mM KCl, 50 uM EDTA, 2.5 mM beta-mercaptoethanol, 5% glycerol, BSA, 1.58 uM 47 bp competitor DNA (nucleosome assays), absent …, low values mean tight binding.
Data set [6] has as its target MeCP2 R133G R133G (Homo sapiens) (UniProt P51608). The following applies: apparent, competitor DNA, EMSA: 20 mM HEPES pH 7.5, 75 mM NaCl, 125 mM KCl, 50 uM EDTA, 2.5 mM beta-mercaptoethanol, 5% glycerol, BSA, 1.58 uM 47 bp competitor DNA (absent in free DNA …).
The target in data set [7] is HisMBP-MeCP2 162-309 (Homo sapiens) (UniProt P51608). As to conditions: apparent, competitor DNA, EMSA: 20 mM HEPES pH 7.5, 75 mM NaCl, 125 mM KCl, 50 uM EDTA, 2.5 mM beta-mercaptoethanol, 5% glycerol, BSA, 1.58 uM 47 bp competitor DNA (absent in free DNA …).
For data set [8], the target named is MeCP2 AT-DIRmut R188G;R190G;K254N;K256N;R268Q (Homo sapiens) (UniProt P51608). As to conditions: apparent, competitor DNA, EMSA: 20 mM HEPES pH 7.5, 75 mM NaCl, 125 mM KCl, 50 uM EDTA, 2.5 mM beta-mercaptoethanol, 5% glycerol, BSA, 1.58 uM 47 bp competitor DNA (absent in free DNA …).
Where [9] appears, read: meCpG at +83, -61, -80 bp from dyad.

Take “GCTTCACCTCGTGACCCAAGCGACACCGGCACTGGGACAGGATGTATATATGTGACACGTGCCTGGAGACTAGGGAGTAATCCCCTTGGCGGTTAAAACGCGGGGGACAGCGCGTACGTGCGTTTAAGCGGTGCTAGAGCTGTCTACGACCAATTGAGCGGCCTCGGCACCGGGATTCTCCAGGGGATCCGGCATCATGGTCTAGAGCG (double strand) [37-N601-27 nucleosome unmethylated]”: the Kd with MeCP2 MBD (Homo sapiens) stood at 279 nM; in [1] it was 167 nM; in data set [2], 137 nM; in data set [3] it was 164 nM; in [4], 137 nM; in [4] (apparent, H1.0 prebound (chromatosome), competitor DNA) it was 164 nM. The sequence further showed a Kd in [5] of 279 nM.
Consider “GAGCCACAAAATCACCGACGCTCACGGGTGCCCAGTTCGCGCGCCCACCTACCGTGTGAAGTCGTCACTCGGGCTTCTAAGTACGCTTAGCGCACGGTAGAGCGCAATCCAAGGCTAACCACCGTGCATCGATGTTGAAAGAGGCCCTCCGTCCTTATTACTTCAAGTCCCTGGGGTACCCGTTTCACTGCCA (double strand) [16-N603-30 nucleosome 91 meCpA]”, for which the Kd came out at 85.7 nM with MeCP2 MBD (Homo sapiens) (asymmetric meCpA at 91), 162 nM in [6] (asymmetric meCpA at 91), 57.1 nM in data set [4] (asymmetric meCpA at 91) and 103 nM in data set [7] (asymmetric meCpA at 91).
“GAGCCACAAAATCACCGACGCTCACGGGTGCCCAGTTCGCGCGCCCACCTACCGTGTGAAGTCGTCACTCGGGCTTCTAAGTACGCTTAGCGCACGGTAGAGCGCAATCCAAGGCTAACCACCGTGCATCGATGTTGAAAGAGGCCCTCCGTCCTTATTACTTCAAGTCCCTGGGGTACCCGTTTCACTGCCA (double strand) [16-N603-30 nucleosome unmethylated]”: the Kd with MeCP2 MBD (Homo sapiens) was found to be 716 nM; in data set [6], 188 nM; in data set [4], 94.9 nM; in [7], 94.6 nM.
Take “GCTTCACCTCGTGACCCAAGCGACACCGGCACTGGGACAGGATGTATATATGTGACACGTGCCTGGAGACTAGGGAGTAATCCCCTTGGCGGTTAAAACGCGGGGGACAGCGCGTACGTGCGTTTAAGCGGTGCTAGAGCTGTCTACGACCAATTGAGCGGCCTCGGCACCGGGATTCTCCAGGGGATCCGGCATCATGGTCTAGAGCG (double strand) [37-N601-27 nucleosome -1 meCpG]”: the Kd stood at 234 nM with MeCP2 MBD (Homo sapiens) (meCpG at -1 (GACAGCGCGTAC)); 119 nM in [1] (meCpG at -1 (GACAGCGCGTAC)); 119 nM in data set [8] (meCpG at -1 (GACAGCGCGTAC)); 72.1 nM in [2] (meCpG at -1 (GACAGCGCGTAC)); 80.4 nM in [3] (meCpG at -1 (GACAGCGCGTAC)); 80.4 nM in data set [4] (apparent, H1.0 prebound (chromatosome), competitor DNA, meCpG at -1 (GACAGCGCGTAC)). Also, the Kd in data set [4] (meCpG at -1 (GACAGCGCGTAC)) came out at 72.1 nM; in data set [5] (meCpG at -1 (GACAGCGCGTAC)), 234 nM.
With “GCTTCACCTCGTGACCCAAGCGACACCGGCACTGGGACAGGATGTATATATGTGACACGTGCCTGGAGACTAGGGAGTAATCCCCTTGGCGGTTAAAACGCGGGGGACAGCGCGTACGTGCGTTTAAGCGGTGCTAGAGCTGTCTACGACCAATTGAGCGGCCTCGGCACCGGGATTCTCCAGGGGATCCGGCATCATGGTCTAGAGCG (double strand) [37-N601-27 nucleosome 3x meCpG]”, the Kd was found to be 67.9 nM with MeCP2 MBD (Homo sapiens) (setting [9]); 42.5 nM in [1] (setting [9]); 42.5 nM in data set [8] (setting [9]); 37.5 nM in data set [2] (setting [9]); 46 nM in [3] (setting [9]); 46 nM in data set [4] (apparent, H1.0 prebound (chromatosome), competitor DNA, meCpG at +83, -61, -80 bp from dyad). Further, the Kd in [4] (setting [9]) came to 37.5 nM; in [5] (setting [9]), 67.9 nM.
With “ATGGAACACATTGCACAGGATGTATATATCTGACACGTGCCTGGAGACTAGGGAGTAATCCCCTTGGCGGTTAAAACGCGGGGGACAGCGCGTACGTGCGTTTAAGCGGTGCTAGAGCTGTCTACGACCAATTGAGCGGCCTCGGCACCGGGATTCTCCAGGGCGGCCGCGTATT (double strand) [15-N601-15 nucleosome unmethylated]”, the Kd was determined as 1000 nM with MeCP2 MBD (Homo sapiens), 596 nM in data set [6], 220 nM in [4] and 240 nM in data set [7].
